Data published in US20120189633A1 (KOLLTAN PHARMACEUTICALS, published 2012).

Legend:
[1] = molecular target: T1, recombinant KIT D4/D5 polypeptide (D4/D5 region of human KIT, V308 to H515, with 5xHis tag) (human, UniProt P10721 26-519); assay: competition solid phase ELISA on KIT D4/D5 antigen; 37C titrated with competitor 37M at 10 nM
T1 construct: also called KIT D4/D5 antigen; KIT immunogen
Experimental: (§1) Competitive binding assays were carried out with antibody 37M or 37C as described below and using solid phase ELISA as described in Example 2 (Section 6.2). In particular, serial dilutions of the reference antibody (either 37M or 37C) were combined with constant concentrations of a competing antibody (37M in the case of 37C, and 37C in the case of 37M) and incubated in wells of 96-well plates coated with a recombinant KIT polypeptide containing the D4/D5 region depicted in FIG. 2A. Reference antibody binding was then detected through the use of an HRP-conjugated, species-specific secondary antibody. Antibody 37M has a mouse constant region while antibody 37C has a human constant region. Therefore, when antibody 37M was used as a reference antibody and antibody 37C was used as a competing antibody, the reference antibody was detected using an anti-mouse IgG secondary antibody; and when antibody 37C was used as a reference antibody and antibody 37M was used as a competing antibody, the reference antibody was detected using an anti-human IgG secondary antibody. […]
(§2) Eight, 3-fold dilutions of the reference antibody samples were prepared beginning at 20 nM (2×), and combined 1:1 with a 20 nM solution of the competing antibody to yield final 1× values. […] The plates were processed similarly as described above for data collection on a plate reader. […]

[2] = molecular target: T1, recombinant KIT D4/D5 polypeptide …; assay: competition solid phase ELISA on KIT D4/D5 antigen; 37C titrated alone, without competitor
Experimental: as §1, §2

[3] = molecular target: full-length, wild-type human KIT receptor expressed on cells (human, UniProt P10721 26-976); assay: cell-based or functional assay
Chain of full-length, wild-type human KIT receptor expressed on cells (P10721 other isoform, or with tags, fused parts or gaps limits assumed): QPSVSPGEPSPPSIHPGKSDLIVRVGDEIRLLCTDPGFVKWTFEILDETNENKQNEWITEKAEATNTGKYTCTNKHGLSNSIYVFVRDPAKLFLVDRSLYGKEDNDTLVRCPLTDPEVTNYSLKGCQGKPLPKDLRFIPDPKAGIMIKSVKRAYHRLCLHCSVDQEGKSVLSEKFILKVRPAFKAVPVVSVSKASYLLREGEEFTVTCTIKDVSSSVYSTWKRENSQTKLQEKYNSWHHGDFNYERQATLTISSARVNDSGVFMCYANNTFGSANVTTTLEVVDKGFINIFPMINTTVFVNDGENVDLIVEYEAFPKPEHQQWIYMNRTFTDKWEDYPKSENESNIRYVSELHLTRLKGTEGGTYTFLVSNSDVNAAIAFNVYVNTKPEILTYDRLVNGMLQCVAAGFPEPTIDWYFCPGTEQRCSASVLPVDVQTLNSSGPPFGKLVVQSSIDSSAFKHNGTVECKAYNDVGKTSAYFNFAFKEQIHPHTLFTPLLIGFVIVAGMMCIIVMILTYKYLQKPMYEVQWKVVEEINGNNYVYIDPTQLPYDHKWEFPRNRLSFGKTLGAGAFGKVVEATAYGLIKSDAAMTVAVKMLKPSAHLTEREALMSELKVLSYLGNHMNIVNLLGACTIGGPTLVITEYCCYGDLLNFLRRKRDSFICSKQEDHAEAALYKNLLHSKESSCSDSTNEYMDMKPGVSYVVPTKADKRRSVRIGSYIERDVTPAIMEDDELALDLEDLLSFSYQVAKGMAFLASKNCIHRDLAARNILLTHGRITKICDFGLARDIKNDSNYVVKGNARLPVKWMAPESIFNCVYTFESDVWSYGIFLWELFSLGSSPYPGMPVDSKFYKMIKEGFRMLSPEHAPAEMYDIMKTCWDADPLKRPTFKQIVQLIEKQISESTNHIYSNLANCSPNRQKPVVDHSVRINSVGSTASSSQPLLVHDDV

[4] = molecular target: T1, recombinant KIT D4/D5 polypeptide …; assay: solid phase ELISA, antigen coated on the plate
Experimental: The binding activity of antibodies 37M and 37C obtained from mice immunized with a KIT immunogen containing the D4/D5 region of the human KIT extracellular region was characterized by solid phase ELISA. […] The binding affinity of antibody 37C for an antigen containing the D4/D5 region (see FIG. 2A) of human KIT was also tested by solid phase ELISA. The general protocol used for the solid phase ELISA experiments are described below.
Preparation of antibody sample with serial dilution: Dilution buffer (100 μL) was added to columns 1 and 7 of a 96 well plate, and 50 μL of dilution buffer were added to all the remaining wells. The test antibody (100 μL) was added to the first well containing 100 μL dilution buffer, mixed by pipetting, and 50 μL from the first well were removed and added into the second well and mixed. This dilution step was repeated across the row until the dilution step was repeated for a total of six dilutions. This dilution process was repeated for each sample.
ELISA: The plate with the absorbed antigen was removed from the −80° C. freezer and was allowed to thaw at room temperature. The borate buffer was removed by flicking the plate into the sink and blotting the plate dry. Blocking buffer (200 μL) was added to each well and was allowed to incubate at room temperature for one hour. The blocking buffer was removed, again by flicking the plate into the sink. […]

T1 sequence (P10721 other isoform, or with tags, fused parts or gaps): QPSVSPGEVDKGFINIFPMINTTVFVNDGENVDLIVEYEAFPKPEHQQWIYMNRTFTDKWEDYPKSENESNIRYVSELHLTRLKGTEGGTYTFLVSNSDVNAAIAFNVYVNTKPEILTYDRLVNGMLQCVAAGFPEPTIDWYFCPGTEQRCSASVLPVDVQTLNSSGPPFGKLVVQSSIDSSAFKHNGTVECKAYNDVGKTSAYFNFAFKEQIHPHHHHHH

| Binder | EC50 [1] [nM] | EC50 [2] [nM] | 50% inhibition concentration (IC50), cell-based phospho-KIT assay, unsorted CHO/KIT-WT cells (FIG. 8) [3] [nM] | IC50, cell-based phospho-KIT assay, sorted (high KIT expression) CHO/KIT-WT cells (FIG. 11B) [3] [nM] | EC50 [4] [nM] |
| --- | --- | --- | --- | --- | --- |
| antibody 37C (antibody, human IgG1, kappa, V domains shown, also called chimeric antibody 37C) VH: QVQLKQSGAELVRPGASVKLSCKASGYTFTDYYINWVKQRPGQGLEWIARIYPGSGNTYYNEKFKGKATLTAEKSSSTAYMQLSSLTSEDSAVYFCARGVYYFDYWGQGTTLTVSA VL: DIVMTQSQKFMSTSVGDRVSVTCKASQNVRTNVAWYQQKPGQSPKALIYSASYRYSGVPDRFTGSGSGTDFTLTISNVQSEDLADYFCQQYNSYPRTFGGGTKLEIKR | 1 | 0.048 | ~0.167 | ~0.334 | ~0.196 |
| antibody 37M (antibody, V domains shown) VH: QVQLKQSGAELVRPGASVKLSCKASGYTFTDYYINWVKQRPGQGLEWIARIYPGSGNTYYNEKFKGKATLTAEKSSSTAYMQLSSLTSEDSAVYFCARGVYYFDYWGQGTTLTVSS VL: DIVMTQSQKFMSTSVGDRVSVTCKASQNVRTNVAWYQQKPGQSPKALIYSASYRYSGVPDRFTGSGSGTDFTLTISNVQSEDLADYFCQQYNSYPRTFGGGTKLEIKR | – | – | – | ~0.315 | – |
